For orientation: stoichiometry N means the number of molecules, sites or subunits per partner or assembly.

Among the data in PMC2575614 are stoichiometry N values, retold here.

For the assay, the target named is HLA-B*2705 heavy chain with the C-terminal sv5 epitope tag (human). Put plainly: two-dimensional gel electrophoresis (non-reducing) and immunoblot; 24-hour stimulated KG-1.B27sv5 cell lysates resolved under non-reducing conditions, immunoblot with HC10 or pK. (In western blotting, separated proteins are transferred to a membrane and probed.)

“HLA-B*2705 heavy chain with the C-terminal sv5 epitope tag (natural protein)” had a stoichiometry N of 2.
